Our source for the fold improvement of the binding affinity relative to the UCA values is paper PMC10184639.

The target of this assay is biotinylated CH848 DS SOSIP Trimer (HIV-1). Nature of the assay: SPR. Background: Surface plasmon resonance follows binding to a sensor surface in real time, without labels.

B1: DH270.I5.6 Fab (Fab, V domains shown)
VH: QVQLVQSGAEVKKPGASVKVSCKASGYTFTDYYIHWVRQAPGQGLEWMGWINPNTGRTNSAQKFQGRVTMTRDTSISTAYMELSRLRSDDTAVYYCARGGWIGLYYDSSGYPNFDYWGQGTLVTVSS
VL: QSALTQPASVSGSPGQSITISCTGTSYDVGSYNLVSWYQQHPGKAPKLMIYEVSKRPSGVSNRFSGSKSGNTASLTISGLQAEDEADYYCCSYAGSSTVVFGGGTKLTVL
Molecule B1 yielded a fold improvement of the binding affinity relative to the UCA of 8 fold.
